Results: patent publication US20230212587A1, “Mutant Hydroxyphenylpyruvate Dioxygenase Polypeptide, Encoding Gene Thereof and Use Therefor” (Beijing Dabeinong Biotechnology Co., Ltd., priority 2019, published 2023)

System: Arabidopsis thaliana T1 plants
Test: Topramezone tolerance of transgenic Arabidopsis thaliana T1 plants (pesticide damage grade by bleached leaf area, score, resistance evaluation)
Format: in vivo
Details: for tolerance to topramezone, in words: Arabidopsis thaliana T1 plants sprayed with topramezone; for Grade 0 / Grade 1 / Grade 2 / Grade 3 / score / Resistance Grade: non-372 position mutants; for Grade 0 / Grade 1 / Grade 2 / Grade 3: number of plants (of 20) in this grade; for score / Scores: score for pesticide damage 0-100; for Classification and statistics of pesticide damage grade Grade 0 / Classification and statistics of pesticide damage grade Grade 1 / Classification and statistics of pesticide damage grade Grade 2 / Classification and statistics of pesticide damage grade Grade 3 / Scores / Resistance evaluation: HPPDs from different species, 7 DAT; for Classification and statistics of pesticide damage grade Grade 0 / Classification and statistics of pesticide damage grade Grade 1 / Classification and statistics of pesticide damage grade Grade 2 / Classification and statistics of pesticide damage grade Grade 3: number of plants (of 16) in this grade
Description: The Arabidopsisthaliana T1 plants into which the AsHPPDm-F372A-02 nucleotide sequence was introduced, Arabidopsis thaliana T1 plants into which the AsHPPD-02 nucleotide sequence was introduced and wild-type Arabidopsisthaliana plants (18 days after sowing) were sprayed with topramezone at four different concentrations, i.e., 25 g ai/ha (one-fold field concentration, 1×), 50 g ai/ha (two-fold field concentration, 2×), 100 g ai/ha (four-fold field concentration, 4×) and 0 g ai/ha (water, 0×) to determine the tolerance of Arabidopsisthaliana to the herbicide. The degree of damage caused by the herbicide was measured for each plant according to the proportion of bleached leaf area (the proportion of bleached leaf area=bleached leaf area/total leaf area×100%) 7 days after spraying (7 DAT): the case where there is basically no bleached phenotype is defined as grade 0, the case where the proportion of bleached leaf area is less than 50% is defined as grade 1,the case where the proportion of bleached leaf area is more than 50% is defined as grade 2, and the case where the proportion of bleached leaf area is 100% grade is defined as grade 3.
(§1) According to the method as described above in point 6 of Example 1, the aforementioned Arabidopsisthaliana T1 plants and wild-type Arabidopsisthaliana plants (18 days after sowing) were sprayed with topramezone at three different concentrations respectively, i.e., 25 g ai/ha (one-fold field concentration, 1×), 100 g ai/ha (four-fold field concentration, 4×) and 0 g ai/ha(water, 0×) to detect the tolerance of Arabidopsisthaliana to the herbicide.
as §1, with “1x),” for “1×),”, “4x)” for “4×)”, “ai/ha (water, 0x)” for “ai/ha(water, 0×)”
According to the method as described above in point 6 of Example 1, the above-mentioned Arabidopsisthaliana T1 plants, Arabidopsisthaliana T1 plants into which the AsHPPD-02 nucleotide sequence was introduced, Arabidopsisthaliana T1 plants into which the PfHPPD-02 nucleotide sequence was introduced, and wild-type Arabidopsisthaliana plants (18 days after sowing) were sprayed with topramezone at four different concentrations respectively, that is, 25 g ai/ha (one-fold field concentration, 1x), 50 g ai/ha (two-fold field concentration, 2x), 100 g ai/ha (four-fold field concentration, 4x) and 0 g ai/ha (water, Ox) to detect the herbicide tolerance of Arabidopsisthaliana.
According to the method as described in point 6 of Example 1, the above-mentioned Arabidopsisthaliana T1 plants and wild-type Arabidopsisthaliana plants (18 days after sowing) were sprayed with topramezone at two different concentrations respectively, that is, 25 g ai/ha (one-fold field concentration, 1x) and 100 g ai/ha (four-fold field concentration, 4x) to detect the herbicide tolerance of Arabidopsisthaliana,. […]

Row | Molecule | tolerance to topramezone, in words | Grade 0 (topramezone 25 g ai/ha (1x)) | Grade 1 (topramezone 25 g ai/ha (1x)) | Grade 2 (topramezone 25 g ai/ha (1x)) | Grade 3 (topramezone 25 g ai/ha (1x)) | Grade 0 (topramezone 100 g ai/ha (4x)) | Grade 1 (topramezone 100 g ai/ha (4x)) | Grade 2 (topramezone 100 g ai/ha (4x)) | Grade 3 (topramezone 100 g ai/ha (4x)) | score (topramezone 25 g ai/ha (1x)) | score (topramezone 100 g ai/ha (4x)) | Resistance Grade (topramezone 25 g ai/ha (1x)) | Resistance Grade (topramezone 100 g ai/ha (4x)) | Classification and statistics of pesticide damage grade Grade 0 (topramezone 25 g ai/ha (1x)) | Classification and statistics of pesticide damage grade Grade 1 (topramezone 25 g ai/ha (1x)) | Classification and statistics of pesticide damage grade Grade 2 (topramezone 25 g ai/ha (1x)) | Classification and statistics of pesticide damage grade Grade 3 (topramezone 25 g ai/ha (1x)) | Classification and statistics of pesticide damage grade Grade 0 (topramezone 100 g ai/ha (4x)) | Classification and statistics of pesticide damage grade Grade 1 (topramezone 100 g ai/ha (4x)) | Classification and statistics of pesticide damage grade Grade 2 (topramezone 100 g ai/ha (4x)) | further results
1 | AsHPPDm-Q284A: Avena sativa HPPD mutant Q284A, SEQ ID NO: 420 (protein, AsHPPDm-Q284A Amino Acid Sequence) MPPTPATATGAAAAAVTPEHAARSFPRVVRVNPRSDRFPVLSFHHVELWCADAASAAGRFSFALGAPLAARSDLSTGNSAHASLLLRSGALAFLFTAPYAPPPQEAATAAATASIPSFSADAARTFAAAHGLAVRSVGVRVADAAEAFRVSVAGGARPAFAPADLGHGFGLAEVELYGDVVLRFVSYPDETDLPFLPGFERVSSPGAVDYGLTRFDHVVGNVPEMAPVIDYMKGFLGFHEFAEFTAEDVGTTESGLNSVVLANNSEAVLLPLNEPVHGTKRRSAIQTYLEYHGGPGVQHIALASNDVLRTLREMRARTPMGGFEFMAPPQAKYYEGVRRIAGDVLSEEQIKECQELGVLVDRDDQGVLLQIFTKPVGDRPTFFLEMIQRIGCMEKDEVGQEYQKGGCGGFGKGNFSELFKSIEDYEKSLEVKQSVVAQKS | no significant difference | 0 | 2 | 16 | 2 | 0 | 0 | 5 | 15 | 67 | 92 | poorly resistant (poorly resistant plants (scores 34-67)) | non-resistant (non-resistant plants (scores 68-100)) |  |  |  |  |  |  |  | 
2 | AsHPPDm-L359W: Avena sativa HPPD mutant L359W, SEQ ID NO: 422 (protein, AsHPPDm-L359W Amino Acid Sequence) MPPTPATATGAAAAAVTPEHAARSFPRVVRVNPRSDRFPVLSFHHVELWCADAASAAGRFSFALGAPLAARSDLSTGNSAHASLLLRSGALAFLFTAPYAPPPQEAATAAATASIPSFSADAARTFAAAHGLAVRSVGVRVADAAEAFRVSVAGGARPAFAPADLGHGFGLAEVELYGDVVLRFVSYPDETDLPFLPGFERVSSPGAVDYGLTRFDHVVGNVPEMAPVIDYMKGFLGFHEFAEFTAEDVGTTESGLNSVVLANNSEAVLLPLNEPVHGTKRRSQIQTYLEYHGGPGVQHIALASNDVLRTLREMRARTPMGGFEFMAPPQAKYYEGVRRIAGDVLSEEQIKECQELGVWVDRDDQGVLLQIFTKPVGDRPTFFLEMIQRIGCMEKDEVGQEYQKGGCGGFGKGNFSELFKSIEDYEKSLEVKQSVVAQKS | no significant difference | 0 | 0 | 2 | 18 | 0 | 0 | 0 | 20 | 97 | 100 | non-resistant (non-resistant plants (scores 68-100)) | non-resistant (non-resistant plants (scores 68-100)) |  |  |  |  |  |  |  | 
3 | AsHPPDm-F415A: Avena sativa HPPD mutant F415A, SEQ ID NO: 424 (protein, AsHPPDm-F415A Amino Acid Sequence) MPPTPATATGAAAAAVTPEHAARSFPRVVRVNPRSDRFPVLSFHHVELWCADAASAAGRFSFALGAPLAARSDLSTGNSAHASLLLRSGALAFLFTAPYAPPPQEAATAAATASIPSFSADAARTFAAAHGLAVRSVGVRVADAAEAFRVSVAGGARPAFAPADLGHGFGLAEVELYGDVVLRFVSYPDETDLPFLPGFERVSSPGAVDYGLTRFDHVVGNVPEMAPVIDYMKGFLGFHEFAEFTAEDVGTTESGLNSVVLANNSEAVLLPLNEPVHGTKRRSQIQTYLEYHGGPGVQHIALASNDVLRTLREMRARTPMGGFEFMAPPQAKYYEGVRRIAGDVLSEEQIKECQELGVLVDRDDQGVLLQIFTKPVGDRPTFFLEMIQRIGCMEKDEVGQEYQKGGCGGFGKGNASELFKSIEDYEKSLEVKQSVVAQKS | no significant difference | 0 | 6 | 12 | 2 | 0 | 0 | 0 | 20 | 60 | 100 | poorly resistant (poorly resistant plants (scores 34-67)) | non-resistant (non-resistant plants (scores 68-100)) |  |  |  |  |  |  |  | 
4 | NtHPPDm-F372A-02: Nicotiana tabacum HPPD mutant F372A, SEQ ID NO: 114 (protein, NtHPPDm-F372A Amino Acid Sequence) MGKLETVTTTSAAAADDSSELTTNFKLVGFKNFIRTNPRSDFFSVKSFHHIEFWCGDATNTARRFSWSLGMPIAAKSDLSTGNSVHASYLLRPVSGSLQFLFTAPYSPSISTPSSAAIPSFSTSTHRSFTTTHGLGVRAVALEVENAYTAFSASVSRGAKPMFEPVTIDEQVAMAEVHLYGDVVLRFVSYLKDADNLVFLPGFEAMDETASYKELDYGIRRLDHAVGNVPELGPVVDYIKRFTGFHEFAEFTAEDVGTAESGLNSMVLANNDETVLLPLNEPVYGTKRKSQIQTYLEHNEGAGVQHLALVTEDIFKTLTEMRKRSGVGGFEFMPSPPPTYYKNLKNRAGDVLSDEQILACEELGILVDRDDQGTLLQIATKPVGDRPTIFIEIIQRIGCMLKDGKGQVYQKGGCGGFGKGNFSELFRSIEEYEKTLEAKQANQVAAA |  |  |  |  |  |  |  |  |  |  |  |  |  | 0 | 6 | 10 | 0 | 0 | 0 | 0 | Classification and statistics of pesticide damage grade Grade 3 (topramezone 100 g ai/ha (4x)): 16; Scores (topramezone 25 g ai/ha (1x)): 54; Scores (topramezone 100 g ai/ha (4x)): 100; Resistance evaluation (topramezone 25 g ai/ha (1x)): poorly resistant (poorly resistant plants (scores 34-67)); Resistance evaluation (topramezone 100 g ai/ha (4x)): non-resistant (non-resistant plants (scores 68-100))
5 | CsHPPD-02: native Cucumis sativus HPPD, SEQ ID NO: 117 (protein, listed as Cucumis sativus, CsHPPD Amino Acid Sequence) MGKEADFPRAPSEATDGGATASQSEFELQGFDNFIRTNPKSDRFKVKRFHHIEFWCTDATNVARRFSWGLGMQIVAKSDLSTGNMTHASYLLRSGHLCFLFTAPYSPSIAAAQNLTPASTASIPSFDHSVCRSFSGTHGFGARAIALEVEDAEIAFRTSVAHGAKPSCPPIVLENRAVLSEVHLYGDVVLRYISYKNPVSGDNGENKPDEWFLPKFEAMEETASFPLDFGIRRLDHAVGNVPELGPAVSYLKGFTGFHEFAEFTAEDVGTSESGLNSMVLANNEEMVLLPINEPVFGTKRKSQIQTYLEHNEGAGVQHLALMSEDIFRTLREMRKRSSVGGFEFMPSPPPTYYKNLKSRAGDVLTDEQIKECEELGILVDKDDQGTLLQIFTKPVGDRPTIFIEIIQRLGCMMKDEEGKAFQKGGCGGFGKGNFSELFKSIEEYEKTLEAKRVSE |  |  |  |  |  |  |  |  |  |  |  |  |  | 0 | 0 | 0 | 16 | 0 | 0 | 0 | Classification and statistics of pesticide damage grade Grade 3 (topramezone 100 g ai/ha (4x)): 16; Scores (topramezone 25 g ai/ha (1x)): 100; Scores (topramezone 100 g ai/ha (4x)): 100; Resistance evaluation (topramezone 25 g ai/ha (1x)): non-resistant (non-resistant plants (scores 68-100)); Resistance evaluation (topramezone 100 g ai/ha (4x)): non-resistant (non-resistant plants (scores 68-100))
